Data from patent US20250340608A1 (PROTAGONIST THERAPEUTICS, published 2025).
Primed or numbered codes have the meaning given here. Ends that are not written are not given here. * marks the point of attachment. PEG8(3) = PEG8 side chain conjugate on Lys; Isovaleryl = CC(C)CC(=O)*

What was measured:
Assay in all cases: cell-based or functional assay
[1] = target: T1, human ferroportin (SLC40A1) fused in frame with GFP, stably expressed in HEK293 cells (human, UniProt Q9NP59 1-571)
T1 sequence (looked up): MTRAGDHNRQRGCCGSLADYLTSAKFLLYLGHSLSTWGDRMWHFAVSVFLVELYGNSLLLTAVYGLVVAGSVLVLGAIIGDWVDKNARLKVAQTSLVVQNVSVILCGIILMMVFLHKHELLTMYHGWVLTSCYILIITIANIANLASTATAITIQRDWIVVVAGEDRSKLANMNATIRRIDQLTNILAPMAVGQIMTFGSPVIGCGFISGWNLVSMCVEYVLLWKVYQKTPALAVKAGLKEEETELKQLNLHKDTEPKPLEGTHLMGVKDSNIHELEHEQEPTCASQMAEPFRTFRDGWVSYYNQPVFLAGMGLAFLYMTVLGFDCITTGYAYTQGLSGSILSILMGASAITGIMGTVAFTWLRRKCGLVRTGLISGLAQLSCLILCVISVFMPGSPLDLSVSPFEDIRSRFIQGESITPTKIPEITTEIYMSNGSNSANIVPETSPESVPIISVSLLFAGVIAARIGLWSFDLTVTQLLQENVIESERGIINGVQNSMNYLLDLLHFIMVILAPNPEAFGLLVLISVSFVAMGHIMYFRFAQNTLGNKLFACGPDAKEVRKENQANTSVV

[2] = target: T1, human ferroportin (SLC40A1) fused in …; remark: listed apart in the source
[3] = target: T2, human ferroportin (SLC40A1) fused in frame with GFP, stably expressed on HEK293 cells (human, UniProt Q9NP59 1-571)
T2 sequence (looked up): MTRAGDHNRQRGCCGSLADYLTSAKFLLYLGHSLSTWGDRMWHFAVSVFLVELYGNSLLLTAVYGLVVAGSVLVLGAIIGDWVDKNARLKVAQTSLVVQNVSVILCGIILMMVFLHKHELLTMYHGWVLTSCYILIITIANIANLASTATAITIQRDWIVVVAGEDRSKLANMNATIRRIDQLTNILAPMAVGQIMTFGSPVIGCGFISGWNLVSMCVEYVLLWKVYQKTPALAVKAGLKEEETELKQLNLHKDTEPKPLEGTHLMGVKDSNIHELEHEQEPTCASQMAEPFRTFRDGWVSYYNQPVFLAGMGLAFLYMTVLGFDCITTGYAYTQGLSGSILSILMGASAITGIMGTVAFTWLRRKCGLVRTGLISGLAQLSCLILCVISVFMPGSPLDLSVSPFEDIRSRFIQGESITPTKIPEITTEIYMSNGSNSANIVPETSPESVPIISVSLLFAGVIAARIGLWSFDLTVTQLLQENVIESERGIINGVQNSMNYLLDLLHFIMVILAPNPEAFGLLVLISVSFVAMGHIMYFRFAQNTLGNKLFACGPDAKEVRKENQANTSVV

[4] = target: T1, human ferroportin (SLC40A1) fused in …; remark: listed apart in the source
[5] = target: T1, human ferroportin (SLC40A1) fused in …; remark: listed apart in the source

H-DTKFPCIIF-NH2 (also: homodimer via disulfide between Cys6 of each monomer) [Compound 317]
EC50 (nM) (n = 3) [1]: 137 nM

Isovaleryl-DTHFPCIQFGPRSKGWVCK-NH2 (not fully specified (bridges); cysteine pairing not given here) [Compound 10]
In Vitro Activity EC50 [2]: 35 nM

H-DTHFPCIIA-NH2 [Compound 278 (DTHFPCIIA-NH2)]
EC50 (nM) (n > 3) [3]: > 1000 nM

Isovaleryl-DTHFPCIIFEPRSKGWVCK-NH2 (not fully specified (bridges); cysteine pairing not given here) [Compound 105]
In Vitro Activity EC50 [2]: 10 nM

H-DAHFPCIIF-NH2 [Compound 52 (DAHFPCIIF-NH2)]
EC50 (nM) (n > 3) [3]: 388 nM

Isovaleryl-DTHFPCIIF-NH2 (also: homodimer via disulfide between Cys6 of each monomer) [Compound 325]
% Activity At 1 uM [1]: 100%

H-DTHFPCIF-NH2 (also: homodimer via disulfide between Cys6 of each monomer) [Compound 312]
EC50 (nM) (n = 3) [1]: > 300 nM

H-DTHFPCILK-NH2 [Compound 309]
Potency: % (activity) at 1 µM [4]: 55% | EC50 (nM) (n = 3) [1]: > 300 nM

Isovaleryl-DTHFPCIIFGPRSKGCK-NH2 (not fully specified (bridges); cysteine pairing not given here) [Compound 115]
In Vitro Activity EC50 [2]: 21 nM

Isovaleryl-DTHFPCIKFGPRSKGWVCK-NH2 (not fully specified (bridges); cysteine pairing not given here) [Compound 9]
In Vitro Activity EC50 [2]: 32 nM

Isovaleryl-DTHFPCIKFEPRSKGWVCK-NH2 (not fully specified (bridges); cysteine pairing not given here) [Compound 181]
In Vitro Activity EC50 [2]: 15 nM

H-DTHFPCIAF-NH2 [Compound 51 (DTHFPCIAF-NH2)]
EC50 (nM) (n > 3) [3]: 382 nM

B1: Compound 291 (peptide)
peptide: Isovaleryl-DTHFPCIKF-NH2
SMILES: CC[C@H](C)[C@H](NC(=O)[C@H](CS)NC(=O)[C@@H]1CCCN1C(=O)[C@H](Cc1ccccc1)NC(=O)[C@H](Cc1c[nH]cn1)NC(=O)[C@@H](NC(=O)[C@H](CC(=O)O)NC(=O)CC(C)C)[C@@H](C)O)C(=O)N[C@@H](CCCCN)C(=O)N[C@@H](Cc1ccccc1)C(N)=O
Potency EC50 [4]: 7 nM | % Activity At 1 uM [1]: 100% | EC50 (nM) (n = 3) [1]: 7 nM

H-DTAFPCIIF-NH2 [Compound 283 (DTAFPCIIF-NH2)]
EC50 (nM) (n > 3) [3]: 739 nM

B2: Compound 349 (peptide)
peptide: Isovaleryl-DTHFPCIKF-NH2
modifications: also: homodimer with IDA-(β-Ala)-Palm linking moiety, attachment site not given here
Log dilutions EC50 (nM) (n > 3) [5]: 5 nM

H-DTHFPCIEK-NH2 (also: homodimer via disulfide between Cys6 of each monomer) [Compound 323]
% Activity At 1 uM [1]: 0% | EC50 (nM) (n = 3) [1]: > 1000 nM

H-DTKFPCIIF-NH2 [Compound 302]
Potency: % (activity) at 1 µM [4]: 60% | EC50 (nM) (n = 3) [1]: > 1000 nM

Isovaleryl-DTHFPCIKFGPRSKGWVCK(PEG8(3))-NH2 (not fully specified (bridges); cysteine pairing not given here) [Compound 153]
In Vitro Activity EC50 [2]: 18 nM

Isovaleryl-DTHFPICIFGPRSK(PEG8(3))GWVC-NH2 (not fully specified (bridges); cysteine pairing not given here) [Compound 176]
In Vitro Activity EC50 [2]: 6 nM

H-DTHFPCIIR-NH2 (also: homodimer via disulfide between Cys6 of each monomer) [Compound 319]
EC50 (nM) (n = 3) [1]: 268 nM

H-DTHFPCIIK-NH2 [Compound 304]
Potency: % (activity) at 1 µM [4]: 55% | EC50 (nM) (n = 3) [1]: > 1000 nM

Isovaleryl-DTHFPCIKFK-NH2 (also: homodimer linked by DIG linker through Lys10 of each monomer) [Compound 346]
Log dilutions EC50 (nM) (n > 3) [5]: 15 nM

H-DTHFPCIKFF-NH2 [Compound 297]
Potency: % (activity) at 1 µM [4]: 64% | EC50 (nM) (n = 3) [1]: > 300 nM

H-DTHFPCIIK-NH2 (also: homodimer via disulfide between Cys6 of each monomer) [Compound 318]
EC50 (nM) (n = 3) [1]: > 300 nM

H-ATHFPCIIF-NH2 [Compound 284 (ATHFPCIIF-NH2)]
EC50 (nM) (n > 3) [3]: > 1000 nM

Isovaleryl-DTHFPCIKFEPRSKGCK-NH2 (not fully specified (bridges); cysteine pairing not given here) [Compound 184]
In Vitro Activity EC50 [2]: 16 nM

H-DTHFPCIIR-NH2 [Compound 305]
Potency: % (activity) at 1 µM [4]: 62% | EC50 (nM) (n = 3) [1]: > 1000 nM

H-DTHFPCILK-NH2 (also: homodimer via disulfide between Cys6 of each monomer) [Compound 322]
EC50 (nM) (n = 3) [1]: > 300 nM

H-DTHFPCIKF-NH2 (also: homodimer with IDA-(β-Ala) linking moiety, attachment site not given here) [Compound 348]
Log dilutions EC50 (nM) (n > 3) [5]: 18 nM

H-DTHFACIIF-NH2 [Compound 280 (DTHFACIIF-NH2)]
EC50 (nM) (n > 3) [3]: > 1000 nM

DTHFPCIKF-NH2 (not fully specified; printed as [PEG25]-(DTHFPCIKF-NH2)2) [Compound 351]
Log dilutions EC50 (nM) (n > 3) [5]: > 1000 nM

B3: Compound 288 (peptide)
peptide: Isovaleryl-DTHFPCIIF-NH2
SMILES: CC[C@H](C)[C@H](NC(=O)[C@H](CS)NC(=O)[C@@H]1CCCN1C(=O)[C@H](Cc1ccccc1)NC(=O)[C@H](Cc1c[nH]cn1)NC(=O)[C@@H](NC(=O)[C@H](CC(=O)O)NC(=O)CC(C)C)[C@@H](C)O)C(=O)N[C@H](C(=O)N[C@@H](Cc1ccccc1)C(N)=O)[C@@H](C)CC
% Activity At 1 uM [1]: 100%

H-DTHFPCAIF-NH2 [Compound 279 (DTHFPCAIF-NH2)]
EC50 (nM) (n > 3) [3]: > 1000 nM

H-DTHFPCIF-NH2 [Compound 293]
Potency: % (activity) at 1 µM [4]: 52% | EC50 (nM) (n = 3) [1]: > 1000 nM

H-DTHFPCIEK-NH2 [Compound 310]
Potency: % (activity) at 1 µM [4]: 0% | % Activity At 1 uM [1]: 0% | EC50 (nM) (n = 3) [1]: > 1000 nM

DTHFPCIKFKPRSKGWVCK (not fully specified; N-terminal isovaleric acid; K10(PEG8); C-terminal NH2) [Compound 150]
In Vitro Activity EC50 [2]: 7 nM

H-DTHFPCIKFF-NH2 (also: homodimer via disulfide between Cys6 of each monomer) [Compound 314]
EC50 (nM) (n = 3) [1]: 130 nM
